pKd: −log10 of the molar value.

Data set [1] deals with LysRS wild type (lysyl-tRNA synthetase) (Escherichia coli). Nature of the data set: EMSA. The following applies: reference; gel-retardation buffer, pH and temperature not in material. For orientation: In EMSA bound probe runs differently from free probe, usually more slowly.
For data set [2], the system named is LysRS(K130A) (Escherichia coli). Nature of the data set: EMSA. Particulars: gel-retardation buffer, pH and temperature not in material.
Data set [3] relates to LysRS(T133A) (Escherichia coli). Nature of the data set: EMSA. Particulars: gel-retardation buffer, pH and temperature not in material.
Data set [4] deals with LysN (anticodon-binding domain of LysRS) (Escherichia coli). Particulars: gel-retardation buffer, pH and temperature not in material; cited from earlier work.

For tRNALys, the binding signal (fraction of WT bound) in data set [1] stood at 1; in data set [2], 0.35; in data set [3], 1.17.

Consider tRNALys (unlabeled competitor), for which, in data set [4], the pKd (in general, the negative decadic logarithm of the Kd, by convention in mol/L) was 4.00.

(Values after paper PMC2444022.)
